Reference: patent publication US20240101645A1 (HENRY M JACKSON FOUNDATION FOR THE ADVANCEMENT OF MILITARY …, published 2024)

B1: COV_1201 (antibody, V domains shown)
VH: QVQLVQSGAEVKKPGASMKVSCKASGYTFTGYYIHWVRQAPGQGLEWMGRINPNSGGTNYAQKFQGRVTMTRDTSISTAYMELSRLRSDDTAVYYCAREYYYVPYGMDVWGQGTTVTVSS
VL: QSALTQPASVSGSPGQSITISCTGTSSDVGGYNFVSWYQHHPGKAPKLMIYEVSNRPSGVSNRFSGSKSGNTASLTISGLQAEDEADYYCSSYTSSSTYVFGTGTKVTVL
notes: human IgG1
B2: COV_2004 (antibody, V domains shown)
VH: QVQLVQSGAEVKKPGASVKVSCKASGYTFTGYYMHWVRQAPGQGLEWMGRINPSSGGTNYAQKFQGRVTMTRDTSISTAYMELSSLRSDDTAVYYCATDGDDGENWFDPWGQGTLVIVSS
VL: DIQMTQSPSSLSASVGDRVTITCRASQGISSWLAWYQQKPEKAPKSLIYAASSLQSGVPSRFSGSGSGTDFTLTISSLQPEDFATYYCQQYNSYPYTFGQGTKLEIK
notes: human IgG1
B3: COV_1144 (antibody, V domains shown)
VH: EVQLVESGGGLVQPGGSLRLSCAASGFTFRSFWMSWVRQAPGKGLEWVANIKEDASEKHYVDPVKGRFTISRDNAKNSLYLQLNSLRAEDMAVYYCARVGRGYCTNGLCYTAFEYWGQGTLVTVSS
VL: DIQMTQSPSSLSASVGDRVTITCRTSQSISNYLNWYQQKPGKAPKLLIYAASSLQSGVPSRFSGSGSGTDFTLTISSLQPEDFATYYCQQSYSTAWTFGQGTKVEIRR
notes: human IgG1
B4: COV_1149 (antibody, V domains shown)
VH: QVQLVESGGGVVQPGRSLRLSCAASGFTFSSYGMHWVRQAPGKGLEWVAVISYDGSNKYYADSVKGRFTISRDNSKNTLYLQMNSLRAEDTAVYYCAKTGGGYSYGLGNVWGQGTLVTVSS
VL: QSALTQPASVSGSPGQSITISCTGTSSDVGGYNYVSWYQQHPGKAPKLMIYDVSNRPSGVSNRFSGSKSGNTASLTISGLQAEDEADYYCSSYTSSSTLVVFGGGTKLTVLG
notes: human IgG1
B5: COV_1151 (antibody, V domains shown)
VH: QVQVQQWGAGLLKPSETLSLTCAVYGGSFNNYYWSWIRQPPGKGLEWIGEINHSGSTNYNPSLMSRVTISVDTSKNQFSLKLTSVTAADTAVYFCARGLPVTTFFSSYYGMDVWGQGTTVTVSS
VL: EIVLTQSPGTLSLSPGERATLSCRASQSVSRTYLAWYQQKPGQAPRLLIYGASSRATGIPDRFSGSGSGTDFTLTISRLEPEDFAVYYCQHYGSSPWTFGQGTKVEIRR
notes: human IgG1
B6: COV_1166 (antibody, V domains shown)
VH: EVQLVESGGGLVQPGGSLRLSCAVSGFTFRSFWMSWVRQTPGKGLEWVANIKEDGSEKYYVDSVKGRFTISRDNAKNSLYLQMNSLRAEDTAVYYCAREGRWELLGFAFDIWGQGTMVTVSS
VL: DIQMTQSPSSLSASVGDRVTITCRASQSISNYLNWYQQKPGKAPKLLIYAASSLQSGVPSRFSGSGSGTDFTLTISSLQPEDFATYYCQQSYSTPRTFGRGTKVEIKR
notes: human IgG1
B7: COV_1170 (antibody, V domains shown)
VH: QVQLVESGGGVVQPGRSLRLSCAASGFTFSTYAMHWVRQAPGKGLEWVALISYDGSNKYYADSVKGRFTISRDNSKNTLDLQMNSLRAEDTAVYYCARSLGGYRTGFDYWGQGTLVTVSS
VL: DIQLTQSPSFLSASVGDRVTITCRASQGISSYLAWYQQKPGKAPKLLIYAASTLQSGVPSRFSGSGSGTEFTLTISSLQPEDFATYYCQQLNSYPPFTFGPGTKVDIKR
notes: human IgG1
B8: COV_1172 (antibody, V domains shown)
VH: QVQLQESGPGLVKPSETLSLTCTVSGGSIRSYYWSWIRQPPGKGLEWIGYIYYSGSTNYSPSLKSRVTISVDTSKNQFSLKLNSVTAADTAVYYCARRGLGYCSGDSCSNAFDIWGQGTMVTVSS
VL: DIQMTQSPSSLSASVGDRVTITCRASQSISSYLNWYQQKPGRAPELLIYDASSLQSGVPSGFSGSGSGTDFTLTISSLQPEDFATYYCQQSYSTPFTFGPGTKVDIKR
notes: human IgG1
B9: COV_2048 (antibody, V domains shown)
VH: QVQLQESGPGLVKPSETLSLTCTVSGGSISNTSYYWGWIRQPPGKGLEWIGSIYRSGSTYYNPSLKSRVTISIDTSKNQFTLKLSSVTAADTAVYYCARDYYGDYSAKPMEYWGQGTLVTVSS
VL: QSALTQPRSVSGSPGQSVTISCTGTSSDVGGYNYVSWYQQHPGKAPKLLIYDVSKRPSGVPDRFSGSKSGNTASLTISGLQAEDEADYYCCSYAGSYVVFGGGAKLTVLG
notes: human IgG1
B10: COV_2008 (antibody, V domains shown)
VH: QVRVVQSGAEVKNPGASVKVSCKVSGYTLTELSIHWVRQAPGNGLEWMGGFDPEDGETIYAQKFQGRVTMTEDTSTDTAYMELSSLRSDDTAVYYCATAGAITGTPRNFYYYYGMDVWGQGTTVTVSS
VL: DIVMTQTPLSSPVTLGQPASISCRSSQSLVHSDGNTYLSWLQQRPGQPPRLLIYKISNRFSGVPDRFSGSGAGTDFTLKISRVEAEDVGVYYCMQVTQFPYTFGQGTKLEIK
notes: human IgG1
B11: COV_2056 (SEQ ID NO:792/797) (antibody, V domains shown)
VH: EVQLVESGGGVVQPGRSLRLSCAASGFTFSIYGMHWVRQAPGKGLEWVALISYDGTNKYYADSVKGRFSISRDDSKNTLYLQMNSLRPEDTAVYYCAKVLMMGDSSGFSLGDAFDIWGQGTMVTVSS
VL: DIQMTQSPSSVSASVGDRVTITCRASQGISNWLAWYQQKPGKAPKLLIYAASSLQSGVPSRFSGSVSGTDFTLTISSLQPEDFATYYCQQANSFPLTFGGGTKVDIKR
B12: COV_2077 (antibody, V domains shown)
VH: QVQLQESGPGLVKPSETLSLTCTVSGGSISSYSWSWIRQPPGKGLEWIGYIYYSGSTNYNPSLKSRVTISVDTSKNQFSLKLSSVTAADTAVYYCARESMGRYSLELRQPESAFDYWGRGTLVTVSS
VL: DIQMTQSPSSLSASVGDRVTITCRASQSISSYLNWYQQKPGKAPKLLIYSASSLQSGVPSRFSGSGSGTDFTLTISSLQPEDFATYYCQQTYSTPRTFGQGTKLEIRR
notes: human IgG1
B13: COV_2093 (antibody, V domains shown)
VH: EVQLVESGGGLVQPGGSLRLSCAASGFMFNRFWMSWVRQAPGKGLEWVTNIKQDGSEKNYVDSVKGRFTISRDNAKNSLYLQMNSLRAEDTAVYYCARDGLYYDFRSPSPFYGMDVWGQGTTVTVSS
VL: DIQMTQSPSSLSASVGDRVTITCRASQSISSYLNWYQHKSGKAPKLLIYAASRLQSGVPSRFSGSGSGTDFTLTIVSLQPEDLATYYCQQSYSTPRTFGGGTKVEIKR
notes: human IgG1
B14: COV_2123 (antibody, V domains shown)
VH: EVQLVESGGGVVQPGRSLRLSCAASGFTFSSYAMHWVRQAPGKGLEWVAVLSYDGSNKYNADSVKGRFTISRDNSKNTLYLQMNSLRVEDTAMYYCARDGVSVTMVRGVIGPLCDYWGQGTLVTVSS
VL: not shown
notes: human IgG1

What follows are binders tested against T1, HCoV-229E spike antigens (bead panel) (HCoV-229E, UniProt P15423 16-1115) (assay: multiplex bead assay).
T1 sequence: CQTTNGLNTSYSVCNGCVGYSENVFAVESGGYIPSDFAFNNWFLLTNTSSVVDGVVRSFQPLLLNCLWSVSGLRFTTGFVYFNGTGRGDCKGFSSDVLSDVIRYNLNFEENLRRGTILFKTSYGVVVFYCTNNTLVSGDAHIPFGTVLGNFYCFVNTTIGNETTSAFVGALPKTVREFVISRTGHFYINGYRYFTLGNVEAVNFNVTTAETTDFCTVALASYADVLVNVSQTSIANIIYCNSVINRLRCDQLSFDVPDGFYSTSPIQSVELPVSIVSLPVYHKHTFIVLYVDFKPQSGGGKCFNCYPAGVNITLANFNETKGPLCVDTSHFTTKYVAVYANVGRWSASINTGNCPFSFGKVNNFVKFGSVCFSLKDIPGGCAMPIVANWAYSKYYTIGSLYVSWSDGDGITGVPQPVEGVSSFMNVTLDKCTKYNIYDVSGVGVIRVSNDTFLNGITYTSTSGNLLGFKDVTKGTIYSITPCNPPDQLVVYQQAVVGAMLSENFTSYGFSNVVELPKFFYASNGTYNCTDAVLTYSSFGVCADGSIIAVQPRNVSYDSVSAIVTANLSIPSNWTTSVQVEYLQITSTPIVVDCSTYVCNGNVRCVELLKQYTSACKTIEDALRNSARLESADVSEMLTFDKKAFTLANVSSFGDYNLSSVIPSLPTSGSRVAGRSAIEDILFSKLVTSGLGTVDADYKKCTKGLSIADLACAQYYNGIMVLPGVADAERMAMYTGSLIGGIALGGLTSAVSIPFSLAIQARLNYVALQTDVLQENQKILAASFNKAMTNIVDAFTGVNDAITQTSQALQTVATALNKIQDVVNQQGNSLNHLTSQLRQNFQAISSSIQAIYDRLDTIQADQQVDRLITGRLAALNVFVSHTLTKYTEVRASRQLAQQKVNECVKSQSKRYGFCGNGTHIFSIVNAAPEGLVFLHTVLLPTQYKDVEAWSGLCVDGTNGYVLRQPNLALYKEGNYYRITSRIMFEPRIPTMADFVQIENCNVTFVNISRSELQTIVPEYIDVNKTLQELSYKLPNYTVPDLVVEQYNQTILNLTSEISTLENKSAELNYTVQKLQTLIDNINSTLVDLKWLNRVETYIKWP
B1: no binding.
B2: no binding.
B3: no binding.
B4: no binding.
B5: no binding.
B6: no binding.
B7: no binding.
B8: no binding.
B9: no binding.
B10: no binding.
B11: no binding.
B12: no binding.
B13: no binding.

The binders below were run against T2, HCoV-OC43 spike antigens (bead panel) (HCoV-OC43, UniProt P36334 14-1297) (assay: multiplex bead assay).
T2 sequence: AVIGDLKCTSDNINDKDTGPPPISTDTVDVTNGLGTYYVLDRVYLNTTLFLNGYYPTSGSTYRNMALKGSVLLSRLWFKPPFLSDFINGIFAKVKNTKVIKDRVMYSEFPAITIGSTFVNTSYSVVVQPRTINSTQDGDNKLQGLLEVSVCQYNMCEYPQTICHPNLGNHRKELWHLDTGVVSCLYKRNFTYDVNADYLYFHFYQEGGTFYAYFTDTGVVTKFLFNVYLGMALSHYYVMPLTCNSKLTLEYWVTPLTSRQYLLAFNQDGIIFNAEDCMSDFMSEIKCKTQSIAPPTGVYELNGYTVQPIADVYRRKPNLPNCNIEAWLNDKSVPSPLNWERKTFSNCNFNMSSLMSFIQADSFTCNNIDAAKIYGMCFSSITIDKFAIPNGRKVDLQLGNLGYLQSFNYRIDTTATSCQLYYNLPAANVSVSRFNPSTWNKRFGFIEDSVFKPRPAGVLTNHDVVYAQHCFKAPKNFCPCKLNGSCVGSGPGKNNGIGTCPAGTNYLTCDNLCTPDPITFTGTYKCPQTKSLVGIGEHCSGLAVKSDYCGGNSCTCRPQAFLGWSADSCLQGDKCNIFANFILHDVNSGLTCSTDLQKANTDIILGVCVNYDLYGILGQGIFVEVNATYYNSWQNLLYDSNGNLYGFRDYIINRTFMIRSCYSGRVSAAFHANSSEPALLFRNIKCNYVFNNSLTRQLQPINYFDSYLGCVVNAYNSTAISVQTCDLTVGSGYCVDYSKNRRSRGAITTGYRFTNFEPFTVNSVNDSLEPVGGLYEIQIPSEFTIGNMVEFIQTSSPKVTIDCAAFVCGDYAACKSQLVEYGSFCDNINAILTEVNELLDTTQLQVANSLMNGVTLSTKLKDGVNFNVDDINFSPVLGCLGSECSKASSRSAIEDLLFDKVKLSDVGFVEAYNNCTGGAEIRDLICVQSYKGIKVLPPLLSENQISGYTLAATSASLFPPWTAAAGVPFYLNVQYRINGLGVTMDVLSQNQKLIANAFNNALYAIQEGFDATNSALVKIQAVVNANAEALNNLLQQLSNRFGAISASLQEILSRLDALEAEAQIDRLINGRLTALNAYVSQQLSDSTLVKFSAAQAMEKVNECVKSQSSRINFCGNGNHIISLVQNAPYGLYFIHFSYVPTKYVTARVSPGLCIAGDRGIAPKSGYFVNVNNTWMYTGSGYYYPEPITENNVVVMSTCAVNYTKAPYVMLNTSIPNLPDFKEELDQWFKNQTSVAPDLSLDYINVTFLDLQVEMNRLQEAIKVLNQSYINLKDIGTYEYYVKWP
B1: no binding.
B3: no binding.
B4: no binding.
B5: no binding.
B6: no binding.
B7: no binding.
B8: no binding.
B9: no binding.
B10: no binding.
B11: no binding.
B12: no binding.
B13: no binding.
B14: no binding.
